Reference: a protein production outcome set (Wang et al. 2014)

Assay: label from the status in PepcDB records
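Note: failed if final PepcDB status was selected cloned or expressed and not failed if soluble or beyond.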

Sequence	protein production
SPMPAGRPRFLRSMALSSQTREWLEKGMPTEAEAGVPIRLQERAANTAPQARAEERHTQPADAAAPHARAERGRTLQAPASTSPLYTGAVPRANRIVQQLVEAGADLANIRTMFRNMLRGEEMILSRAEQNVFLQHFPDMLPCGIDRNSELAIALREALRRADSQQAARAPARTPPRSS	not failed
SQSLYQALWNSADVLRSKMDANDYKSYLLGMVFYKYLSDKMLFFVAETMEEETESLDEALAVYRKYYEDEETHEDLLAVITDEMSYAIHPDLTFTALVERVNDGSFQLEDLAQGFRDIEQSDELYENLFEDIDLYSKKLGATPQKQNQTVAAVMKELAVLDVAGHAGDMLGDAYEYLIGQFATDSGKKAGEFYTPQPVAKLMTQIAFLGREDKQGFTLYDATMGSGSLLLNAKRYSRQPQTVVYFGQELNTSTYNLARMNMILHGVPIENQFLHNADTLDEDWPTQEPTNFDGVLMNPPYSAKWSASSGFMDDPRFSPFGKLAPKSKADFAFLLHGYYHLKQDNGVMAIVLPHGVLFRGNAEGTIRKALLEEGAIDTVIGLPANIFFNTSIPTTVIILKKNRTNRDVYFIDASKEFDKGKNQNIMTDAHIEKILNAYKSREDIDKFAHLASFEEIVENDYNLNIPRYVDTFEEEEVEPLTEIVAKINQTNATIESQTASLLDMLGQLHGTTPEADEELKAFVKAFKG	failed
SRKVFVGGLPPDIDEDEITASFRRFGPLVVDWPHKAESKSYFPPKGYAFLLFQEESSVQALIDACLEEDGKLYLCVSSPTIKDKPVQIRPWNLSDSDFVMD	not failed
SRSRPAGPALLLLLLFLGAAESVRRAQPPRRYTPDWPSLDSRPLPAWFDEAKFGVFIHWGVFSVPAWGSEWFWWHWQGEGRPQYQRFMRDNYPPGFSYADFGPQFTARFFHPEEWADLFQAAGAKYVVLTTKHHEGFTNWPSPVSWNWNSKDVGPHRDLVGELGTALRKRNIRYGLYHSLLEWFHPLYLLDKKNGFKTQHFVSAKTMPELYDLVNSYKPDLIWSDGEWECPDTYWNSTNFLSWLYNDSPVKDEVVVNDRWGQNCSCHHGGYYNCEDKFKPQSLPDHKWEMCTSIDKFSWGYRRDMALSDVTEESEIISELVQTVSLGGNYLLNIGPTKDGLIVPIFQERLLAVGKWLSINGEAIYASKPWRVQWEKNTTSVWYTSKGSAVYAIFLHWPENGVLNLESPITTSTTKITMLGIQGDLKWSTDPDKGLFISLPQLPPSAVPAEFAWTIKLTGVK	failed
SSGGKSAQGPEEGGVCITEALITKRNLTFPEDGELSEKMFHTLDELQTVRLDREGITTIRNLEGLQNLHSLYLQGNKIQQIENLACIPSLRFLSLAGNQIRQVENLLDLPCLQFLDLSENLIETLKLDEFPQSLLILNLSGNSCTNQDGYRELVTEALPLLLDLDGQPVVERWISDEEDEASSDEEFPELSGPFCSERGFLKELEQELSRHREHRQQTALTEHLLRMEMQPTLTDLPLLPGVPMAGDSSPSATPAQGEETVPEAVSSPQASSPTKKPCSLIPRGHQSSFWGRKGARAATAPKASVAEAPSTTKTTAKRSKK	not failed
SSNQTPYIGSKISLISKLDIRYEGILYTVDTNDSTIALAKVRSFGTEKRPTANPVAARDDVYEYIIFKASDIKDLIVCDTPKMANIGGGLPYDPAIISVSSRSAPASDGAPAASAGSSRAGTPSRNSPLGQIIQNQRPGRGGYQQNFQANRGYNNYRGGFAGGYNNQRGHNNYGVPRVNHREKLKFESDFDFEKANEKFQEVLVDNLEKLNIEDKAEPEVEEKKDAAFYDKKTSFFDNISCESLEKAEGKTGRPDWKKERETNQETFGHNAVRSLNYRRGFGGRGRGGNRGYGGYNNGYQHQHQHRGGYNGGYRQNNGGYRRGGYAPRDNQGNTAAAAEQ	failed
SSQQRPARKLPSLLLDPTEETVRRRCRDPINVEGLLPSKIRINLEDNVQYVSMRKALKVKRPRFDVSLVYLTRKFMDLVRSAPGGILDLNKVATKLGVRKRRVYDITNVLDGIDLVEKKSKNHIRWIGSDLSNFGAVPQQKKLQEELSDLSAMEDALDELIKDCAQQLFELTDDKENERLAYVTYQDIHSIQAFHEQIVIAVKAPAETRLDVPAPREDSITVHIRSTNGPIDVYLCEVEQGQTSNKRSEGVGTSSSESTHPEGPEEEENPQQSEELLEVSN	failed
SSTFSASDFNSERYSSSRPSYPSDFYKMIDEYHDGERKLLVDVGCGPGTATLQMAQELKPFEQIIGSDLSATMIKTAEVIKEGSPDTYKNVSFKISSSDDFKFLGADSVDKQKIDMITAVECAHWFDFEKFQRSAYANLRKDGTIAIWGYADPIFPDYPEFDDLMIEVPYGKQGLGPYWEQPGRSRLRNMLKDSHLDPELFHDIQVSYFCAEDVRDKVKLHQHTKKPLLIRKQVTLVEFADYVRTWSAYHQWKQDPKNKDKEDVADWFIKESLRRRPELSTNTKIEVVWNTFYKLGKRV	not failed
STALIQLYSLCEHAFHRHLGSGSDSRQTIERYSSPKVRRLLQTLRCFKPEEVHTQADGLRRMRHQVDQADFNRLSHTLESKCRMVDQMDQPPTETRALVATLEQILHTTEDRQTNRSAARVTPTPTPAHAKPKPSSGANTAQPRTRRRVY	failed
STPSSKAINEVSTEDSNVTVTAVVLTSGRRSIQYNGEQHVIREGELADETGKISYTAWDGFSGDLQPGQTVQLGNAGVREWDGQPELNLGDSTDP	failed
STQTDKALYNRLVPLVNGVREFSEIQLSRLKKLGIHKTDPSTLTEEEVRKFARLNIDPATITWQ	not failed
SVMCAAIAAGAFAQGQGQGLAGINEATSLMTSYFDPATKLCYAIGAVLGLVGGIKTYGKFSSGDPDTSKTAASWFFACIFLIVAATILRSFF	failed
SWKQAVRPCLRLPNFRFDWTSFNVLSAQKRWVKSFSTAVSIKEDPFWSAPLKKVLENHPETQYAYPDSTTVLECARGLVRDDLSSVLVFENVQDKLRWIGIFSERDIVRKVASQGLPLEKTQLKKAYTTRDRVETITVDKTVQDVVDILVSKDVQNIAVLYQKKHGDAFREDCYGVLTSRDLSTFFLSIPENDRSFFEQQTVKDVLESKGLDRSGDNTVYQIHQSVSVDEAIQKMDDHKVGTLLVTQSGK	failed
SWNKKNEEKEDFGIIVILWKQVTVKEDGKVPLEPFLTAAKEVLRVVDAFGSGFRIVKNDIAGNIKKLYRANQTVHAETLQELIIAENSPDGLATVALLWLKRAFQFIASFLRRLVVTDKSLEQCVTEAYNCTLRPCHSAVIQKVFWGGVKLAPSRERFYRKLHPDLNIAKAKIEEFLIELHDPLCCIVQFFFQRELEDQCWGDEVYQRKDSSEWLKVSCEQDSV	not failed
SYRSTQQITDFTKEILVNGEAVTAFDRQGDLPNVVVTPNFEAGVDQVVDQLAMNDSERDTTAIIGKSLAECEALTKALKARGEQVTLIQTENQRLAPGVIVVPSFLAKGLEFDAVIVWNANQENYQREDERQLLYTICSRAMHELTLVAVGSLSPLLARVNHALYTLNEAK	not failed
TAPTLAEEVKQQSDGSVIIEGSANLRDLNKLFNWHLPINEVRTFNGLILEHLEKIPIEGTQFRLNQLNITVLEVADNMVKKVKVELIE	not failed
TCIYKLADTVSDEYSLQKIIDFLSSTPQGKQAFQKRPQLGVVDLPKLHQLPTDTLGYVYADQMLQNNLQPLQSHEIDNDYQFFKTHITETHDLWHIVTGADTSILGEIQLEAFYVSQLYASRFWLALLAKNLLKAVIYDIELSTPYMDAISTGWVMAKQAKPLFGLEWNLLWEKPLADVRTSLNIILP	failed
TDRARRVIVLAQEEARGLNHNYIGTEHILLGLIHEGEGVAAKALESMGISLEAVRQEVEEIIGHGSEPPAGHIPFTPRAKKVLELSLREGLQMGHKYIGTEFLLLGLIREGDGVAAQVLVKLGADLPRVRQQVIQLLSGYEGGESPENNNEGEAVGAG	failed
TEDNIVELDGREWIMTRRQKTRVATNIILLDIPKRIIEKYAPVRKNGHLLPILSNQKMNAYLKEIADLCNIRKPLSFHMARYREFYKHQIINRLYCMSIKGGNEKETSELLYSTLFCHFKEPLFVDCKDSDFFNNMIAIEEL	failed
TEKTKAVETTDVALAIDTLVQNGLKALDEMRQLNQEQVDYIVAKASVAALDAHGELALHAVEETGRGVFEDKATKNLFACEHVVNNMRHTKTVGVIEEDDVTGLTLIAEPVGVVCGITPTTNPTSTAIFKSLISLKTRNPIIFAFHPSAQESSAHAARIVRDAAIAAGAPENCVQWIEQPSIDATNALMNHDGIATILATGGNAMVKAAYSCGKPALGVGAGNVPAYVEKSANIRQAAHDIVMSKSFDNGMVCASE	not failed
TERMDKVGDALEEVLSKALSQRTITVGVYEAAKLLNVDPDNVVLCLLAADEDDDRDVALQIHFTLIQAFCCENDINILRVSNPGRLAELLLLETDAGPAASEGAEQPPDLHCVLVTNPHSSQWKDPALSQLICFCRESRYMDQWVPVINLPER	failed
TERVNLWMHDHGVRRPFRPVVADGYKKTINKNHSVNGSAPNFVHACDAAHLLRTVNAARAEGITQFALVHDSFGSLPSHAARFRQIIREEFVRMYEEHDVLTEVLEQAKCDLDEHNDKLSALVDMRADLTGKLNIKEVLNAEYAFAYP	failed
TFVCASAGNHAQGFAFVCRHFGVPGVVFMPVTTPQQKIDKTRMFGAEFITIRLVGDIFDQCYKAAREHVEAIGGVMVPPFDHDDIIEGQATVAAEIAEQLPAGPVADLVVLPVGGGGLAAGVTGYLGDSLSADRFLFCEPEGAPSFRRSLELGGVVTLDQVDNFVDGAAVARIGDLNFAALRRFSPEQVMLLPENAICLTITEMLNVEGVVLEPAGALAITALEALGRDSLEGKIVVAVVSGGNF	failed
TGDASKCLATGPGIASTVKTGEEVGFVVDAKTAGKGKVTCTVLTPDGTEAEADVIENEDGTYDIFYTAAKPGTYVIYVRFGGVDIPNSPFTVMATDGEVTAVEEAPVNACP	not failed
TGFVGEMYGTGDILRSVSIPSETDKPIIVELAVAAMEELVRMAQTGDPLWLSTDNSVEILNEEEYFRTFPRGIGPKPLGLRSEASRQSAVVIMNHINLVEILMDVNQWSCVFSGIVSRALTLEVLSTGVAGNYNGALQVMTAEFQVPSPLVPTRENYFVRYCKQHSDGSWAVVDVSLDSLRPSTPILRTRRRPSGCLIQELPNGYSKVTWIEHMEVDDRSVHNMYKPLVQSGLAFGAKRWVATLERQCERLASSMASNIPGDLSVITSPEGRKSMLKLAERMVMSFCSGVGASTAHAWTTMSTTGSDDVRVMTRKSMV	failed
TGPQGPPGPAGPKGAKGETGPQGPPGPAGPKGAKGDSGVPLSYEFTQKVESSNGTAVFGLLSNGFVEVRITGSYSSDVFNIPYNYRPLKAGTQMALFSTSGVGVAKVGEDKITIQGYSRNAQCSGTVLYPHREF	failed
THANIQGLVKHVDYMAFSDQDTFLSVSNYAFDAFTFDFYASMLNAARLIIADEHTLLDTERLTDLILQENVNVMFATTALFNLLTDAGEDWMKGLRCILFGGERASVPHVRKALRIMGPGKLINCYGPTEGTVFATAHVVHDLPDSISSLPIGKPISN	failed
TPHLVNLNEDPLMSECLLYYIKDGITRVGQADAERRQDIVLSGAHIKEEHCIFRSERSNSGEVIVTLEPCERSETYVNGKRVSQPVQLRSGNRIIMGKNHVFRFNHPEQARAEREKT	not failed
TPLAEGAKAIETLCKLIKKGHIVAVKGIGGFHLVCDATKNRVVMELRERKKRPTKPFAVMFRSVFEIGKCTELSPIEEATILSPERPIVLISKRRPHRLEKFLISCDGVAPRVGTMGVFLPYSPLHSLLMEQAKIPLVFTSANLSGEPLIRDFKELCEKLSGVFDYYLDHDREILNPCDDSVVTIQNNKFQV	failed
TPLPHQLEVAQKVVEKMNGKAILADEVGLGKTVEAGLILKEYMIRGLAKKILILVPASLVSQWVKELQEKFLIPAVEQKKSYVWEQCDIVVSSIDTAKRSPHREIVLSIPYDLVIIDEAHKLKNSKTKNYEFVRNLVKKYCLLLTATPIQNRIEEIFNLVSLLKPGHL	failed
